Assays:
HLA-A*03:01 [1] = assay: IEDB peptide-MHC binding, purified MHC/competitive/radioactivity; filed as Kd, often an IC50 or EC50 that approximates it; ≥ and ≤ were set here for values at or beyond the usual limits of such assays; conditions: source organism: Hepatitis C virus (isolate 1)
HLA-A*33:01 = assay: as above; conditions: source organism: Hepatitis C virus (isolate 1)
HLA-A*31:01 [2] = assay: as above; conditions: source organism: Hepatitis C virus (isolate 1)
HLA-A*01:01 [3] = assay: as above; conditions: source organism: Hepatitis C virus (isolate 1)
HLA-A*68:01 = assay: as above; conditions: source organism: Hepatitis C virus (isolate 1)
HLA-A*02:02 = assay: as above; conditions: source organism: Hepatitis C virus (isolate 1)
HLA-A*02:03 = assay: as above; conditions: source organism: Hepatitis C virus (isolate 1)
HLA-A*02:06 = assay: as above; conditions: source organism: Hepatitis C virus (isolate 1)
HLA-A*02:01 [4] = assay: as above; conditions: source organism: Hepatitis C virus (isolate 1)
HLA-B*54:01 = assay: as above; conditions: source organism: Hepatitis C virus (isolate 1)
HLA-B*40:01 [5] = assay: as above; conditions: source organism: Hepatitis C virus (isolate 1)
HLA-A*68:02 = assay: as above; conditions: source organism: Hepatitis C virus (isolate 1)
HLA-B*07:02 [6] = assay: as above; conditions: source organism: Hepatitis C virus (isolate 1)
HLA-B*53:01 = assay: as above; conditions: source organism: Hepatitis C virus (isolate 1)
HLA-B*18:01 [7] = assay: as above; conditions: source organism: Hepatitis C virus (isolate 1)
HLA-B*40:02 = assay: as above; conditions: source organism: Hepatitis C virus (isolate 1)
HLA-B*35:01 = assay: as above; conditions: source organism: Hepatitis C virus (isolate 1)
HLA-B*44:03 = assay: as above; conditions: source organism: Hepatitis C virus (isolate 1)
HLA-B*51:01 [8] = assay: as above; conditions: source organism: Hepatitis C virus (isolate 1)
HLA-A*11:01 [9] = assay: as above; conditions: source organism: Hepatitis C virus (isolate 1)
HLA-B*51:01 [10] = assay: IEDB peptide-MHC binding, purified MHC/competitive/fluorescence; filed as Kd, often an IC50 or EC50 that approximates it; ≥ and ≤ were set here for values at or beyond the usual limits of such assays; conditions: source organism: Mycobacterium tuberculosis variant bovis
HLA-B*58:01 = assay: IEDB peptide-MHC binding, purified MHC/direct/fluorescence; filed as Kd, often an IC50 or EC50 that approximates it; ≥ and ≤ were set here for values at or beyond the usual limits of such assays
HLA-B*15:01 = assay: as above
HLA-A*03:01 [11] = assay: as above
HLA-B*44:02 = assay: as above
HLA-A*31:01 [12] = assay: as above
HLA-A*69:01 = assay: as above
HLA-A*01:01 [13] = assay: as above
HLA-B*48:01 = assay: as above
HLA-B*27:05 = assay: as above
HLA-B*57:01 = assay: as above
HLA-A*02:01 [14] = assay: as above
HLA-B*40:01 [15] = assay: as above
HLA-B*46:01 = assay: as above
HLA-A*29:02 = assay: as above
HLA-B*18:01 [16] = assay: as above
HLA-B*08:01 = assay: as above
HLA-A*11:01 [17] = assay: as above
HLA-B*15:17 = assay: as above
HLA-B*07:02 [18] = assay: as above
HLA-A*02:01 [19] = assay: IEDB peptide-MHC binding, purified MHC/competitive/fluorescence; filed as Kd, often an IC50 or EC50 that approximates it; ≥ and ≤ were set here for values at or beyond the usual limits of such assays; conditions: source organism: Mycobacterium tuberculosis variant bovis BCG str. Pasteur 1173P2
[20] = source organism: Mycobacterium tuberculosis variant bovis
[21] = source organism: Bacillus anthracis
[22] = source organism: Mammarenavirus juninense
[23] = source organism: Mycobacterium tuberculosis C
[24] = source organism: Mycobacterium tuberculosis
[25] = source organism: Coxiella burnetii

Sequence: HSKKKCDEL
- Kd (HLA-A*03:01 [1]): ≥ 78 µM
- Kd (HLA-A*33:01): ≥ 77.7 µM
- Kd (HLA-A*31:01 [2]): ≥ 65 µM
- Kd (HLA-A*01:01 [3]): 3.52 µM
- Kd (HLA-A*68:01): ≥ 77.7 µM
- Kd (HLA-A*02:02): ≥ 70 µM
- Kd (HLA-A*02:03): ≥ 78.1 µM
- Kd (HLA-A*02:06): ≥ 77.1 µM
- Kd (HLA-A*02:01 [4]): ≥ 69.4 µM
- Kd (HLA-B*54:01): ≥ 78.1 µM
- Kd (HLA-B*40:01 [5]): ≥ 76.2 µM
- Kd (HLA-A*68:02): ≥ 69.8 µM
- Kd (HLA-B*07:02 [6]): ≥ 77.5 µM
- Kd (HLA-B*53:01): ≥ 78.2 µM
- Kd (HLA-B*18:01 [7]): ≥ 77.5 µM
- Kd (HLA-B*40:02): ≥ 77.3 µM
- Kd (HLA-B*35:01): ≥ 77.4 µM
- Kd (HLA-B*44:03): ≥ 78.2 µM
- Kd (HLA-B*51:01 [8]): ≥ 77.5 µM
- Kd (HLA-A*11:01 [9]): ≥ 37.3 µM

Sequence: TPREAPYEL
- Kd (HLA-B*51:01 [10]): ≥ 20 µM
- Kd (HLA-B*58:01; [20]): ≥ 20 µM
- Kd (HLA-B*15:01; [20]): ≥ 20 µM
- Kd (HLA-A*03:01 [11]; [20]): ≥ 20 µM
- Kd (HLA-B*44:02; [20]): ≥ 20 µM
- Kd (HLA-A*31:01 [12]; [20]): ≥ 20 µM
- Kd (HLA-A*69:01; [20]): ≥ 20 µM
- Kd (HLA-A*01:01 [13]; [20]): ≥ 20 µM
- Kd (HLA-B*48:01; [20]): ≥ 20 µM
- Kd (HLA-B*27:05; [20]): ≥ 20 µM
- Kd (HLA-B*57:01; [20]): ≥ 20 µM
- Kd (HLA-A*02:01 [14]; [20]): ≥ 20 µM
- Kd (HLA-B*40:01 [15]; [20]): ≥ 20 µM
- Kd (HLA-B*46:01; [20]): ≥ 20 µM
- Kd (HLA-A*29:02; [20]): ≥ 20 µM
- Kd (HLA-B*18:01 [16]; [20]): ≥ 20 µM
- Kd (HLA-B*08:01; [20]): 7 µM
- Kd (HLA-A*11:01 [17]; [20]): ≥ 20 µM

Sequence: PTDYAKPQY
- Kd (HLA-B*58:01; [21]): ≥ 20 µM
- Kd (HLA-B*15:01; [21]): ≥ 20 µM
- Kd (HLA-A*03:01 [11]; [21]): ≥ 20 µM
- Kd (HLA-A*31:01 [12]; [21]): ≥ 20 µM
- Kd (HLA-A*69:01; [21]): ≥ 20 µM
- Kd (HLA-A*01:01 [13]; [21]): 0.0525 µM
- Kd (HLA-B*15:17; [21]): ≥ 20 µM
- Kd (HLA-B*48:01; [21]): ≥ 20 µM
- Kd (HLA-B*27:05; [21]): ≥ 20 µM
- Kd (HLA-B*57:01; [21]): ≥ 20 µM
- Kd (HLA-A*02:01 [14]; [21]): ≥ 20 µM
- Kd (HLA-B*40:01 [15]; [21]): ≥ 20 µM
- Kd (HLA-B*07:02 [18]; [21]): ≥ 20 µM
- Kd (HLA-B*46:01; [21]): ≥ 20 µM
- Kd (HLA-B*18:01 [16]; [21]): ≥ 20 µM
- Kd (HLA-B*08:01; source organism: Bacillus anthracis str. A2012): ≥ 20 µM
- Kd (HLA-A*11:01 [17]; [21]): ≥ 20 µM

Sequence: ATDPVEMAL
- Kd (HLA-A*01:01 [13]; [22]): 0.308 µM
- Kd (HLA-A*29:02; [22]): ≥ 20 µM

Sequence: IIRTENRPL
- Kd (HLA-B*58:01; [23]): ≥ 20 µM
- Kd (HLA-A*03:01 [11]; [23]): ≥ 20 µM
- Kd (HLA-B*44:02; [23]): ≥ 20 µM
- Kd (HLA-A*31:01 [12]; [23]): ≥ 20 µM
- Kd (HLA-A*69:01; [23]): ≥ 20 µM
- Kd (HLA-A*01:01 [13]; [23]): ≥ 20 µM
- Kd (HLA-B*48:01; [23]): ≥ 20 µM
- Kd (HLA-B*27:05; [23]): ≥ 20 µM
- Kd (HLA-B*57:01; [23]): ≥ 20 µM
- Kd (HLA-A*02:01 [14]; [23]): ≥ 20 µM
- Kd (HLA-B*40:01 [15]; [23]): ≥ 20 µM
- Kd (HLA-B*46:01; [23]): ≥ 20 µM
- Kd (HLA-A*29:02; [23]): ≥ 20 µM
- Kd (HLA-B*18:01 [16]; [23]): ≥ 20 µM
- Kd (HLA-B*08:01; [23]): 3.06 µM
- Kd (HLA-A*11:01 [17]; [23]): ≥ 20 µM

Sequence: IQAVFGFSL
- Kd (HLA-A*02:01 [19]): 1.35 µM
- Kd (HLA-B*58:01; [24]): ≥ 20 µM
- Kd (HLA-A*03:01 [11]; [24]): ≥ 20 µM
- Kd (HLA-B*44:02; [24]): ≥ 20 µM
- Kd (HLA-A*31:01 [12]; [24]): ≥ 20 µM
- Kd (HLA-A*69:01; [24]): ≥ 20 µM
- Kd (HLA-A*01:01 [13]; [24]): ≥ 20 µM
- Kd (HLA-B*27:05; [24]): ≥ 20 µM
- Kd (HLA-B*57:01; [24]): ≥ 20 µM
- Kd (HLA-B*07:02 [18]; [24]): ≥ 20 µM
- Kd (HLA-B*46:01; [24]): ≥ 20 µM
- Kd (HLA-A*29:02; [24]): ≥ 20 µM
- Kd (HLA-A*11:01 [17]; [24]): ≥ 20 µM

Sequence: ITLYEYDHF
- Kd (HLA-B*58:01; [25]): 0.885 µM
- Kd (HLA-B*15:01; [25]): ≥ 20 µM
- Kd (HLA-A*03:01 [11]; [25]): ≥ 20 µM
- Kd (HLA-A*01:01 [13]; [25]): ≥ 20 µM
- Kd (HLA-B*15:17; [25]): 0.0126 µM
- Kd (HLA-B*27:05; [25]): ≥ 20 µM
- Kd (HLA-B*57:01; [25]): 0.13 µM
- Kd (HLA-A*02:01 [14]; [25]): ≥ 20 µM
- Kd (HLA-B*07:02 [18]; [25]): ≥ 20 µM

— the Immune Epitope Database (IEDB)
